This series deals with the molecule itself. Nature of the series: cross-linking; 1 μg IRE1-KR (~0.8 μM) or various concentrations in RNA cleavage buffer (20 mM HEPES pH 7.5, 50 mM K acetate, 1 mM Mg acetate, 0.05% Triton X-100), 250 μM DSS, 1 h on ice; SDS-PAGE and IRE1α immunoblot; also with CRUK-3 (5 µM), which augmented KR-0P dimerization and oligomerization. A general note: A western blot detects proteins with antibodies after separation by electrophoresis.

B1: IRE1-KR-R887A, unphosphorylated (domain or fragment, human, UniProt O75460 547-977, looked up)
chain: GSSPSLEQDDGDEETSVVIVGKISFCPKDVLGHGAEGTIVYRGMFDNRDVAVKRILPECFSFADREVQLLRESDEHPNVIRYFCTEKDRQFQYIAIELCAATLQEYVEQKDFAHLGLEPITLLQQTTSGLAHLHSLNIVHRDLKPHNILISMPNAHGKIKAMISDFGLCKKLAVGRHSFSRRSGVPGTEGWIAPEMLSEDCKENPTYTVDIFSAGCVFYYVISEGSHPFGKSLQRQANILLGACSLDCLHPEKHEDVIARELIEKMIAMDPQKRPSAKHVLKHPFFWSLEKQLQFFQDVSDRIEKESLDGPIVKQLERGGRAVVKMDWRENITVPLQTDLAKFRTYKGGSVRDLLRAMRNKKHHYRELPAEVRETLGSLPDDFVCYFTSRFPHLLAHTYRAMELCSHERLFQPYYFHEPPEPQPPVTPDAL
notes: IRE1α, human, kinase-endoribonuclease (KR) module, residues G547-L977, with R887A; also called unphosphorylated R887A; source: SF9 cells, purified in-house following the same procedure as IRE1α KR; not shown: His6, N-terminal, cleaved
As usually defined, the stoichiometry N is a count of units in the complex or per binding partner. For B1, the “stoichiometry N” value stood at 2.

B2: IRE1-KR-R887A, phosphorylated (domain or fragment, human, UniProt O75460 547-977, looked up)
chain: B1 chain
modifications: phosphorylated (allowed to autophosphorylate in the presence of ATP and MgCl2); sites not stated for this mutant
notes: IRE1α, human, kinase-endoribonuclease (KR) module, residues G547-L977, with R887A; also called phosphorylated IRE1-KR-R887A; IRE1-KR-3P R887A; source: SF9 cells, purified in-house following the same procedure as IRE1α KR; autophosphorylated with 2 mM ATP and 10 mM MgCl2, then SEC; not shown: His6, N-terminal, cleaved
Take B2: the “stoichiometry N” value stood at 2.

The record behind these values is publication PMC8674358, “Decoding non-canonical mRNA decay by the endoplasmic-reticulum stress sensor IRE1α” (Nature Communications, 2021).
